Data reported in patent US20190077860A1 (EISAI R AND D MANAGEMENT, published 2019).

T1: human EphA6 extracellular region-SEAP-His protein (human, UniProt Q9UF33 23-550)
T1 construct: extracellular domain; also called hEphA6-SEAP-His
T1 sequence (looked up): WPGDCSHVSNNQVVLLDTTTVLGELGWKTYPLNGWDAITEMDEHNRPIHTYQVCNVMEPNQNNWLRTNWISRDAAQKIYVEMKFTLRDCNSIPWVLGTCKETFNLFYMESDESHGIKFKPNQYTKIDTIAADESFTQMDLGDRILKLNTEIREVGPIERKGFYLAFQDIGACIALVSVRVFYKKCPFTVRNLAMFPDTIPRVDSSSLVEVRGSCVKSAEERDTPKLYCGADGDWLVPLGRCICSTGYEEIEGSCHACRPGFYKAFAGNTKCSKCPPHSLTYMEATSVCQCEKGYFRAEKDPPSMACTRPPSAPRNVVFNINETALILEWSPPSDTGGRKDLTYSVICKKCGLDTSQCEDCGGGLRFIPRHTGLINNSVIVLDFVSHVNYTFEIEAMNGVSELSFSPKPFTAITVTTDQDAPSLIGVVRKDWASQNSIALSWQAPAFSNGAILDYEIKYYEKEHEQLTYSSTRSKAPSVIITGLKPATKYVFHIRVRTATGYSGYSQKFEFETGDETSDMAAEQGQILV

T2: human EphB2 extracellular region-SEAP-His protein (human, UniProt P29323 19-543)
T2 construct: extracellular domain; also called hEphB2-SEAP-His
T2 sequence (looked up): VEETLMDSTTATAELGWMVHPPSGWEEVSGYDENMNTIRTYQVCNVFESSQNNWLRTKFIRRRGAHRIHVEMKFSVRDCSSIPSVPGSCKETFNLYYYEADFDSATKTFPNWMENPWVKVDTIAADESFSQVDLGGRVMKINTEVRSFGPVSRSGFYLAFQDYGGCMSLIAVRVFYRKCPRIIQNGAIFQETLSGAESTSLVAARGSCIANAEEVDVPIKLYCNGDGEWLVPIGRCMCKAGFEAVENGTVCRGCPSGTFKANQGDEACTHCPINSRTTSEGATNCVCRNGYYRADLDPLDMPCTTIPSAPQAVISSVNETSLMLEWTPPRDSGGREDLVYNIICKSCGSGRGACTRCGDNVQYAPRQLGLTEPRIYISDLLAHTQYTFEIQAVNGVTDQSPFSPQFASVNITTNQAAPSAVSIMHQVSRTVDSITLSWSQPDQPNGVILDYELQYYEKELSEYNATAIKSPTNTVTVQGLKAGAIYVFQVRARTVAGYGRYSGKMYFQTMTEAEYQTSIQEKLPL

T3: human EphA3 extracellular region-SEAP-His protein (human, UniProt P29320 21-541)
T3 construct: extracellular domain; also called hEphA3-SEAP-His
T3 sequence (looked up): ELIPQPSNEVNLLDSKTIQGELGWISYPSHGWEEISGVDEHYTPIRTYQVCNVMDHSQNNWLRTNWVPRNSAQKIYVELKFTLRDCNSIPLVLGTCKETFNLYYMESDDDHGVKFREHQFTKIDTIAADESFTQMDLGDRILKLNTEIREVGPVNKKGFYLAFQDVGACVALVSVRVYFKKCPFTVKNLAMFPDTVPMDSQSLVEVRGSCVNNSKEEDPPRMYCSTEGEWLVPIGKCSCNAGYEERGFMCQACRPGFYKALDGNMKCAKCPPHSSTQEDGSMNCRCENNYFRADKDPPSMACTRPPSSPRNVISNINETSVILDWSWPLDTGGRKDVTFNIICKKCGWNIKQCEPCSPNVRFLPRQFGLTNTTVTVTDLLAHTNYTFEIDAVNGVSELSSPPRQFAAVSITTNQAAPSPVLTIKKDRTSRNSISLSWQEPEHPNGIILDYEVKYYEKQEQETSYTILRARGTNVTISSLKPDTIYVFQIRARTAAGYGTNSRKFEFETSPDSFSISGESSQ

T4: human EphA10 extracellular region-SEAP-His protein (human, UniProt Q5JZY3 34-565)
T4 construct: extracellular domain; also called hEphA10-SEAP-His
T4 sequence (looked up): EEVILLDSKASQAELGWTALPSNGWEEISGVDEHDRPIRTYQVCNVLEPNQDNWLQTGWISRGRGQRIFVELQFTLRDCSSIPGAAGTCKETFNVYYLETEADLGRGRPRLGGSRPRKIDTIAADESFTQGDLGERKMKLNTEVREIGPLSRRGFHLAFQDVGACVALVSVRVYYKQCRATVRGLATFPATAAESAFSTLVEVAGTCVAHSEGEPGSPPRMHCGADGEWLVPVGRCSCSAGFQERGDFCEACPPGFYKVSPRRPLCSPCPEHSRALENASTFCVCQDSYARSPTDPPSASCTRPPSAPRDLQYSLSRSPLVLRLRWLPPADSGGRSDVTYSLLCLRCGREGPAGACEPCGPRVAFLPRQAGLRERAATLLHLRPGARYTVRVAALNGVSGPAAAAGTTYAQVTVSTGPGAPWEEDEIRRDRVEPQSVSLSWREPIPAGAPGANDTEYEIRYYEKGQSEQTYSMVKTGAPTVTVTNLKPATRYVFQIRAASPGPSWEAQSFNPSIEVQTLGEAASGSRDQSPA

B1: humanized antibody No. 134 (antibody, human IgG2)
heavy: QVQLVQSGSELKKPGASVKVSCKASGYTFTDYSMHWVRQAPGQGLKWMGWINTETGEPTYAQGFTGRFVFSLDTSVSTAYLQISSLKAEDTAVYYCARIPLYYYGSRYWYFDVWGQGTTVTVSSASTKGPSVFPLAPSSRSTSESTAALGCLVKDYFPEPVTVSWNSGALTSGVHTFPAVLQSSGLYSLSSVVTVPSSNFGTQTYTCNVDHKPSNTKVDKTVERKSCVECPPCPAPPAAAPSVFLFPPKPKDTLMISRTPEVTCVVVDVSHEDPEVQFNWYVDGVEVHNAKTKPREEQFNSTFRVVSVLTVVHQDWLNGKEYKCKVSNKGLPAPIEKTISKTKGQPREPQVYTLPPSREEMTKNQVSLTCLVKGFYPSDIAVEWESNGQPENNYKTTPPMLDSDGSFFLYSKLTVDKSRWQQGNVFSCSVMHEALHNHYTQKSLSLSPG
light: EIVMTQSPATLSVSPGERATLSCRASENIYRNLAWYQQKPGQSPRLLIYAATNLADGIPARFSGSGSGTEYTLTISSLQSEDFAVYYCQHFWGTPWTFGQGTKVEIKRTVAAPSVFIFPPSDEQLKSGTASVVCLLNNFYPREAKVQWKVDNALQSGNSQESVTEQDSKDSTYSLSSTLTLSKADYEKHKVYACEVTHQGLSSPVTKSFNRGEC
notes: human Ig kappa; also called L2-4/HA2
B2: humanized antibody No. 133 (antibody, human IgG2)
heavy: QVQLVQSGSELKKPGASVKVSCKASGYTFTDYSMHWVRQAPGQGLEWMGWINTETGEPTYAQGFTGRFVFSLDTSVSTAYLQISSLKAEDTAVYYCARIPLYYYGSRYWYFDVWGQGTTVTVSSASTKGPSVFPLAPSSRSTSESTAALGCLVKDYFPEPVTVSWNSGALTSGVHTFPAVLQSSGLYSLSSVVTVPSSNFGTQTYTCNVDHKPSNTKVDKTVERKSCVECPPCPAPPAAAPSVFLFPPKPKDTLMISRTPEVTCVVVDVSHEDPEVQFNWYVDGVEVHNAKTKPREEQFNSTFRVVSVLTVVHQDWLNGKEYKCKVSNKGLPAPIEKTISKTKGQPREPQVYTLPPSREEMTKNQVSLTCLVKGFYPSDIAVEWESNGQPENNYKTTPPMLDSDGSFFLYSKLTVDKSRWQQGNVFSCSVMHEALHNHYTQKSLSLSPG
light: EIVMTQSPATLSVSPGERATLSCRASENIYRNLAWYQQKPGQSPRLLIYAATNLADGIPARFSGSGSGTEYTLTISSLQSEDFAVYYCQHFWGTPWTFGQGTKVEIKRTVAAPSVFIFPPSDEQLKSGTASVVCLLNNFYPREAKVQWKVDNALQSGNSQESVTEQDSKDSTYSLSSTLTLSKADYEKHKVYACEVTHQGLSSPVTKSFNRGEC
notes: human Ig kappa; also called L2-4/HA1
B3: humanized antibody No. 135 (antibody, human IgG2)
heavy: QVQLVQSGSELKKPGASVKVSCKASGYTFTDYSMHWVRQAPGQGLEWMGWINTETGEPTYADDFKGRFVFSLDTSVSTAYLQISSLKAEDTAVYYCARIPLYYYGSRYWYFDVWGQGTTVTVSSASTKGPSVFPLAPSSRSTSESTAALGCLVKDYFPEPVTVSWNSGALTSGVHTFPAVLQSSGLYSLSSVVTVPSSNFGTQTYTCNVDHKPSNTKVDKTVERKSCVECPPCPAPPAAAPSVFLFPPKPKDTLMISRTPEVTCVVVDVSHEDPEVQFNWYVDGVEVHNAKTKPREEQFNSTFRVVSVLTVVHQDWLNGKEYKCKVSNKGLPAPIEKTISKTKGQPREPQVYTLPPSREEMTKNQVSLTCLVKGFYPSDIAVEWESNGQPENNYKTTPPMLDSDGSFFLYSKLTVDKSRWQQGNVFSCSVMHEALHNHYTQKSLSLSPG
light: EIVMTQSPATLSVSPGERATLSCRASENIYRNLAWYQQKPGQSPRLLIYAATNLADGIPARFSGSGSGTEYTLTISSLQSEDFAVYYCQHFWGTPWTFGQGTKVEIKRTVAAPSVFIFPPSDEQLKSGTASVVCLLNNFYPREAKVQWKVDNALQSGNSQESVTEQDSKDSTYSLSSTLTLSKADYEKHKVYACEVTHQGLSSPVTKSFNRGEC
notes: human Ig kappa; also called L2-4/HK1
B4: humanized antibody No. 136 (antibody, human IgG2)
heavy: QVQLVQSGSELKKPGASVKVSCKASGYTFTDYSMHWVRQAPGQGLKWMGWINTETGEPTYADDFKGRFVFSLDTSVSTAYLQISSLKAEDTAVYYCARIPLYYYGSRYWYFDVWGQGTTVTVSSASTKGPSVFPLAPSSRSTSESTAALGCLVKDYFPEPVTVSWNSGALTSGVHTFPAVLQSSGLYSLSSVVTVPSSNFGTQTYTCNVDHKPSNTKVDKTVERKSCVECPPCPAPPAAAPSVFLFPPKPKDTLMISRTPEVTCVVVDVSHEDPEVQFNWYVDGVEVHNAKTKPREEQFNSTFRVVSVLTVVHQDWLNGKEYKCKVSNKGLPAPIEKTISKTKGQPREPQVYTLPPSREEMTKNQVSLTCLVKGFYPSDIAVEWESNGQPENNYKTTPPMLDSDGSFFLYSKLTVDKSRWQQGNVFSCSVMHEALHNHYTQKSLSLSPG
light: EIVMTQSPATLSVSPGERATLSCRASENIYRNLAWYQQKPGQSPRLLIYAATNLADGIPARFSGSGSGTEYTLTISSLQSEDFAVYYCQHFWGTPWTFGQGTKVEIKRTVAAPSVFIFPPSDEQLKSGTASVVCLLNNFYPREAKVQWKVDNALQSGNSQESVTEQDSKDSTYSLSSTLTLSKADYEKHKVYACEVTHQGLSSPVTKSFNRGEC
notes: human Ig kappa; also called L2-4/HK2
B5: humanized antibody No. 132 (antibody, human IgG2)
heavy: QIQLVQSGSELKKPGASVKVSCKASGYTFTDYSMHWVRQAPGQGLKWMGWINTETGEPTYAQGFTGRFVFSLDTSVSTAYLQISSLKAEDTAVYYCARIPLYYYGSRYWYFDVWGQGTTVTVSSASTKGPSVFPLAPSSRSTSESTAALGCLVKDYFPEPVTVSWNSGALTSGVHTFPAVLQSSGLYSLSSVVTVPSSNFGTQTYTCNVDHKPSNTKVDKTVERKSCVECPPCPAPPAAAPSVFLFPPKPKDTLMISRTPEVTCVVVDVSHEDPEVQFNWYVDGVEVHNAKTKPREEQFNSTFRVVSVLTVVHQDWLNGKEYKCKVSNKGLPAPIEKTISKTKGQPREPQVYTLPPSREEMTKNQVSLTCLVKGFYPSDIAVEWESNGQPENNYKTTPPMLDSDGSFFLYSKLTVDKSRWQQGNVFSCSVMHEALHNHYTQKSLSLSPG
light: EIVMTQSPATLSVSPGERATLSCRASENIYRNLAWYQQKPGQSPRLLIYAATNLADGIPARFSGSGSGTEYTLTISSLQSEDFAVYYCQHFWGTPWTFGQGTKVEIKRTVAAPSVFIFPPSDEQLKSGTASVVCLLNNFYPREAKVQWKVDNALQSGNSQESVTEQDSKDSTYSLSSTLTLSKADYEKHKVYACEVTHQGLSSPVTKSFNRGEC
notes: human Ig kappa; also called L2-4/HA4

Tests used:
Assay in all cases: ELISA
[1] = biological target: T1, human EphA6 extracellular …
[2] = biological target: T2, human EphB2 extracellular …
[3] = biological target: T3, human EphA3 extracellular …
[4] = biological target: T4, human EphA10 extracellular …

Binder | A450 as % of hEphA4-SEAP-His [1] [%] | A450 as % of hEphA4-SEAP-His [2] [%] | A450 as % of hEphA4-SEAP-His [3] [%] | A450 as % of hEphA4-SEAP-His [4] [%]
B1 | 9.6 | 5.1 | 5 | 5
B2 | 8.8 | 4.6 | 5 | 4.7
B3 | 7 | 5 | 5 | 5.1
B4 | 7.2 | 5.3 | 5.2 | 5.2
B5 | 9.7 | 4.7 | 4.8 | 4.7
